The values below come from article PMC8025907.

The target in series [1] is T1, His6-BfmR (Pseudomonas aeruginosa MPAO1) (UniProt Q9HWS7).
T1 sequence: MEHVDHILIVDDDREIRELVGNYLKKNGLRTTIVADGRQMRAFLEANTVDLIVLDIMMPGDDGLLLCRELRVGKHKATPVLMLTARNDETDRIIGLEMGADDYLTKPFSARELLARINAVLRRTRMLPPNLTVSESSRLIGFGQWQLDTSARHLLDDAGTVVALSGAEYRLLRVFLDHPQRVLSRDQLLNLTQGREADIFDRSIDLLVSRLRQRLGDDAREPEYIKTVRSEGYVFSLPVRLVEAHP
As to the kind of experiment: EMSA. As to conditions: 10 mM Tris-Cl pH 8.0, 1 mM DTT, 10% glycerol, 5 mM MgCl2, 10 mM KCl, 50 mM acetyl phosphate; EMSA 30 min at 37 C; footprinting 30 min at room temperature. On the technique in general: Mobility shift assays separate free from complexed probe on a gel.

The target in series [2] is T1, His6-BfmR (Pseudomonas aeruginosa MPAO1). As to the kind of experiment: DNase I footprinting. As to conditions: 10 mM Tris-Cl pH 8.0, 1 mM DTT, 10% glycerol, 5 mM MgCl2, 10 mM KCl, 50 mM acetyl phosphate; EMSA 30 min at 37 C; footprinting 30 min at room temperature.

Turning to “GAATATCCGAAAGCCAGACGGTTATCGGCAGAAACTCTTGGTTTTCATTGCAGTCATGCAATCTTCGCAAGGTTGCCGCAATATATGAAACAAACTGTTACATCTGTCGCCCGGACCTGATGCCTCTAGGCCTGCGCCCTTATCCGACGGCCTCATCCAGGCGCTATCCGGCTGCCTGTCACAAAAGCTTTCGCGCTTTGCAGTCTCGCTGTCACAACCCATCCAGATGATCCCCCTCCAGCAGCGCCGGCCGGCGACAGAACCGGCCGTTTCCGCGCTGCTCAAGA (double strand) [oprP promoter]”, the binding result in series [1] and in series [2] was “binds” throughout.
